Switch fluorescence ratio data for 120 sequences are collected here from the supplement of paper PMC10126150.

± gives the standard deviation of the averaged measurements.

For the data set, the system named is ATP. As to the kind of experiment: switch fluorescence ratio, 500 uM ATP over buffer (Cy3 cluster intensity, sum of 5 cycles each) (fold (ratio)); higher = stronger signal-on switching upon ATP binding; sequences stand for … in TCGTCGGCAGCGTCAGATGTGTATAAGAGACAGTTTTTTTTTTTTTTTTTTTTTTTTT…TC. Conditions: aptamer strand: ATP DNA aptamer (quencher-CACCTGGGGGAGTATTGCGGAGGAAGG + anchor), 100 nM annealed; ATP concentration: 500 uM. The method in brief: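 Values give the fluorescence ratio for each switch-domain sequence, averaged from per-cluster ratios of summed target-cycle to summed buffer-cycle Cy3 intensity. The Cy3-labelled switching-strand clusters sat on a modified Illumina MiSeq flow-cell, were annealed to 100 nM quencher-labelled ATP aptamer, and were imaged in selection buffer, then after 15 min with 500 uM ATP at 22 °C. Five cycles ran with NaOH stripping and re-annealing between them, and clusters outside 100-1000 RFU were excluded.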
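Note: ATP exposure 15 min at 22 °C before imaging.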

As to CGATCAGTTG, the switch fluorescence ratio is 0.9853 ± 0.004. For TTCGGGAAGC the value was 1.018 ± 0.0056; for GTGATAGATG, 1.013 ± 0.01; for ACTTGTGGCT, 1.01 ± 0.018. As for TTTAAGTCT, the figure is 0.984 ± 0.095; as for ATGTCTTGTG, 0.985 ± 0.026; as for GTGACGAGTG, 0.993 ± 0.047.

In the case of AAGTGCCCCA, the switch fluorescence ratio amounted to 1.05 ± 0.016. For TGGCGGATTT the value was 0.998 ± 0.031; for AGGGGGCATC, 1.01 ± 0.07. For CCGTGGGACC the value was 1.11 ± 0.016; for AGGGTTGGTA, 1.01 ± 0.011; for ATTCACATAT, 1.11 ± 0.02. As for ATTCAAGCCT, the figure is 1.15 ± 0.047; as for AAGGGGTGTA, 0.985 ± 0.04.

Consider AGTATGACGT, for which the switch fluorescence ratio amounted to 0.986 ± 0.026. As for CATTGTGGTA, the figure is 1.014 ± 0.0033. For GATTTGGGCG the value was 1.038 ± 0.0054; for CGGTCCTGAA, 1.03 ± 0.002. For the sequence TCAGTAGTGA, the switch fluorescence ratio came to 1.06 ± 0.051. As for CCTGAGACAC, the figure is 1.08 ± 0.052. For TTTTGTGG the value was 1.01 ± 0.073; for GATGGATGAA, 1.016 ± 0.0033.

TTGGGCCGGG: the switch fluorescence ratio was 0.991 ± 0.02. On to ATGGTTTCGC, for which the switch fluorescence ratio was 0.9932 ± 0.0067. For GGGGGCCTAA the value was 1 ± 0.028. For ATAAGGGGTA the value was 0.98 ± 0.019; for TGGTAGTGCT, 1.01 ± 0.018; for TATGGTGCCT, 1.02 ± 0.082. As to AGGGCTTTAC, the switch fluorescence ratio was 1.1314 ± 8.1e-05. As for AAGGGAGGCT, the figure is 1.01 ± 0.066; as for GGTCCTTAGG, 1 ± 0.021; as for CAGAAAGAGC, 0.969 ± 0.0086. For AAGTTTGTGG the value was 0.973 ± 0.047.

Consider TACAACTAGA, for which the switch fluorescence ratio amounted to 1 ± 0.024.

Regarding GGAAATGAGT, the switch fluorescence ratio is 1.02 ± 0.016. For TAAAGGGTG the value was 1.08 ± 0.037. For TTCCGGGGAA the value was 1.16 ± 0.21; for TTTTTAACCT, 1.57 ± 0.36. In the case of GGTCTGTTAT, the switch fluorescence ratio is 1.04 ± 0.078. Turning to ATAAATTTGT, the switch fluorescence ratio came out at 0.967 ± 0.019. As for TGCAAGGGAG, the switch fluorescence ratio is 1.0133 ± 0.00021. For TATGATTTAT the value was 0.995 ± 0.062; for GGATAACGTA, 1.01 ± 0.049; for GGATATACGT, 1.01 ± 0.017. For TTACGAAAAG the value was 1.08 ± 0.14; for TGTTTAAGAG, 1 ± 0.023; for TCTTGGCTTT, 0.976 ± 0.019. As to GGTCGTAAGT, the switch fluorescence ratio worked out at 0.988 ± 0.026. For GAAGGGAGCA the value was 1.02 ± 0.028; for TAGGCGAGTT, 0.98 ± 0.0021; for CCGGTGAGGG, 0.999 ± 0.05.

As for AGGATTATTG, the switch fluorescence ratio amounted to 0.991 ± 0.017. As for TTTGTTAATA, the figure is 1.02 ± 0.014; as for AACGCTGGGT, 1.0379 ± 0.00084; as for ATGTGAAGAG, 0.9952 ± 0.003. For AGGGGTTATC the value was 1.02 ± 0.026; for TTCGTTTATC, 1.07 ± 0.093. As for AAGGAGTGAC, the figure is 1.05 ± 0.06; as for GGTTGGAATA, 0.965 ± 0.044.

As to TACGGGGCGG, the switch fluorescence ratio worked out at 1.36 ± 0.64. As to TGTTCGGGTT, the switch fluorescence ratio was 0.99 ± 0.015.

Regarding ACGGGGGGAA, the switch fluorescence ratio was 1.02 ± 0.019. Consider TGGATGATAT, for which the switch fluorescence ratio was determined as 0.9913 ± 0.008. On to CGGTTGCTAG, for which the switch fluorescence ratio was determined as 0.997 ± 0.042. For CGGGGCGGCA the value was 0.998 ± 0.032; for ACTGGATTGG, 1.01 ± 0.042; for CCAGCCAATA, 3.36 ± 0.12. As for GGGCGCGTAT, the switch fluorescence ratio is 1.03 ± 0.045. For TGGGCAAGGA the value was 1.02 ± 0.028; for TGGAGGTCCG, 1.06 ± 0.023; for TGGGTTTTGA, 1.01 ± 0.033.

Regarding AGGCAATATG, the switch fluorescence ratio is 1.19 ± 0.018. For TACTGGGGTA the value was 1.02 ± 0.028; for CATGATTCA, 0.998 ± 0.041; for TGGCTGATTT, 1.003 ± 0.0053. For TATCGGCTGT the value was 1.01 ± 0.011. For the sequence CGAGTTTGGG, the switch fluorescence ratio came out at 1.001 ± 0.0031. As for TACGTTCAGG, the figure is 1.02 ± 0.011; as for TAAAAGGTGA, 0.99 ± 0.029; as for TGGGCGAGAA, 0.9685 ± 0.0052. Consider CGCTGGCATG, for which the switch fluorescence ratio stood at 1 ± 0.032. As for TAGAATGTGT, the figure is 1.027 ± 0.0043; as for CGATCCGGGA, 0.9982 ± 0.006; as for CGTCTGGCGG, 1.01 ± 0.021. As for GGGGATTAGT, the figure is 0.997 ± 0.043; as for AAAATTGCAG, 0.997 ± 0.012. For GCGGCAAAAT the value was 1.01 ± 0.041; for AGCTTCGTCT, 1.04 ± 0.065; for TAGTAGGGTT, 0.986 ± 0.021. As to CAGCCGTTTC, the switch fluorescence ratio is 1.03 ± 0.033. For CGCAAACGCA the value was 3.62 ± 0.17; for AAATGAGCTT, 0.986 ± 0.029. As for CTAGGTGATC, the figure is 1.07 ± 0.044.

In the case of TTGTTCGATG, the switch fluorescence ratio turned out to be 0.99 ± 0.025. As for ACTGAGTGGC, the figure is 1.06 ± 0.029. For CGTGTGTGTA the value was 1.07 ± 0.05; for TAATTTAAGT, 1.01 ± 0.028; for TATCCAGGGA, 1.026 ± 0.0046. As for CTGAAAGGGT, the figure is 1.01 ± 0.011; as for GGGGGAACCG, 0.994 ± 0.08; as for ACGTGCTTAT, 0.976 ± 0.013. For GGGAGGCATG, the switch fluorescence ratio was found to be 0.936 ± 0.13. GTTCCTTGGA: the switch fluorescence ratio came to 1.01 ± 0.045. As for ACAGTTAAGT, the figure is 1.04 ± 0.039; as for AAAAACGCTT, 1.01 ± 0.045. With GGAGGTTTGG, the switch fluorescence ratio was 0.992 ± 0.044.

As to CGGTGTGTGC, the switch fluorescence ratio is 1.04 ± 0.026. As for TACCGGGTGG, the figure is 1.06 ± 0.027; as for TAGGGGTGGG, 1.0453 ± 0.00085. For ACAAAATTTT the value was 1.03 ± 0.067; for TTATGGGGAA, 0.987 ± 0.015; for CAGGAACTGT, 0.985 ± 0.018.

Regarding TTTAGTCGGT, the switch fluorescence ratio was 0.9638 ± 0.0056. For TGTTTGAAGG the value was 0.995 ± 0.017; for GAAAAGGGCG, 1.01 ± 0.022; for GGGGCTAGCG, 0.99 ± 0.02. For AGGAGCTGCG the value was 0.998 ± 0.038; for TCAGTTTTTC, 1.013 ± 0.0022; for CATGGCAACG, 0.993 ± 0.038.
